Data set [1] concerns C[C@H](C=O)[C@H]1CC[C@H]2[C@@H]3CCC4=CC(=O)CC[C@]4(C)[C@H]3CC[C@]12C. Description: purified protein. The settings on record: 1 mM NAD+, 100 mM HEPES pH 7.5, 25 °C.
Data set [2] relates to O=Cc1ccccc1. Description: purified protein. Particulars: 1 mM NAD+, 100 mM HEPES pH 7.5, 25 °C.
The test system of data set [3] is T1, C[C@H](C=O)[C@H]1CC[C@H]2[C@@H]3CCC4=CC(=O)CC[C@]4(C)[C@H]3CC[C@]12C.
T1 construct: full-length, His tag (pET28a, NdeI/HindIII), E. coli BL21 LOBSTR
As to the kind of experiment: purified protein. Type of data set: biochemical, Pseudomonas putida. The settings on record: 1 mM NAD+, 100 mM HEPES pH 7.5, 25 °C.

For data set [4], the system named is T2, O=Cc1ccccc1.
T2 construct: full-length, His tag (pET28a, NdeI/HindIII), E. coli BL21 LOBSTR
As to the kind of experiment: purified protein. Type of data set: biochemical, Pseudomonas putida. Particulars: 1 mM NAD+, 100 mM HEPES pH 7.5, 25 °C.

Data set [5] concerns the target steroid aldehyde dehydrogenase (Sad) from Caldimonas tepidiphilia (Caldimonas tepidiphilia). Description: crystal structure; X-ray, 1.8 Å; sitting-drop vapor diffusion at 4 °C, 20 mg/mL Sad_(Ctepid), 40% MPD, 3% PEG 8000, 0.1 M sodium cacodylate pH 6.5, 10% glycerol; interface analysed with PISA.

From PMC12410373, “Sad from Proteobacteria is a Structurally Distinct ALDH3 Enzyme Specialized for the Oxidation of Steroidal Aldehydes” (Biochemistry, 2025) come the findings set out here.

One may read the Km as the concentration of substrate that gives half-maximal velocity. A word on the kcat: it is the maximal rate divided by the concentration of active sites. The kcat/Km is the turnover number divided by the Michaelis constant. By stoichiometry N is commonly meant a count of units in the complex or per binding partner.

On to PpBADH (Pseudomonas putida; F400A), for which, in data set [1], the Michaelis constant (Km) turned out to be 4.35 ± 0.167 µM, the kcat amounted to 0.00284 ± 3.34e-05 s⁻¹ and the kcat/Km was 653 ± 75.1 M⁻¹ s⁻¹. In addition, the Michaelis constant (Km) in the data set with O=Cc1ccccc1 [2] came out at 59.5 ± 2.59 µM.

Regarding “PpBADH (Pseudomonas putida; F400A/L125T)”, in data set [3], the Km came to 1.73 ± 0.0801 µM, the catalytic constant (kcat) is 0.0431 ± 0.000719 s⁻¹ and the catalytic efficiency (kcat/Km) was found to be 24900 ± 1230 M⁻¹ s⁻¹. In addition, in the data set with O=Cc1ccccc1 [4], the Km worked out at 40.97 ± 2.58 µM, the kcat worked out at 0.037 ± 0.000756 s⁻¹ and the kcat/Km came to 903 ± 59.8 M⁻¹ s⁻¹.

Turning to PpBADH (Pseudomonas putida; L125T), in data set [1], the Michaelis-Menten constant (Km) came out at 18.94 ± 1.07 µM, the kcat amounted to 0.0291 ± 0.000667 s⁻¹ and the specificity constant (kcat/Km) amounted to 1540 ± 36.8 M⁻¹ s⁻¹. The Km in the data set with O=Cc1ccccc1 [2] stood at 3.18 ± 0.216 µM.

With PpBADH (Pseudomonas putida; Y121A), in the data set with O=Cc1ccccc1 [2], the Km is 700.4 ± 31.9 µM.

In the case of SadCtest (Comamonas testosteroni), in data set [1], the Michaelis constant (Km) was determined as 1.93 ± 0.118 µM and the catalytic constant (kcat) was determined as 3.57 ± 0.0818 s⁻¹.

On to “steroid aldehyde dehydrogenase (Sad) from Caldimonas tepidiphilia (enzyme)”, for which the stoichiometry N in data set [5] came out at 2.
